In IntAct's records for PubMed 19805280:

B1: Protein DOA1 (Saccharomyces cerevisiae), P36037 (parent)
chain: MGYQLSATLKGHDQDVRDVVAVDDSKVASVSRDGTVRLWSKDDQWLGTVVYTGQGFLNSVCYDSEKELLLFGGKDTMINGVPLFATSGEDPLYTLIGHQGNVCSLSFQDGVVISGSWDKTAKVWKEGSLVYNLQAHNASVWDAKVVSFSENKFLTASADKTIKLWQNDKVIKTFSGIHNDVVRHLAVVDDGHFISCSNDGLIKLVDMHTGDVLRTYEGHESFVYCIKLLPNGDIVSCGEDRTVRIWSKENGSLKQVITLPAISIWSVDCMSNGDIIVGSSDNLVRIFSQEKSRWASEDEINELSTQVEKSTISSKTIEFDESKLSPYEILQSPGRKEGQIVVVKSPQGTIEAHQFSNSSWKKVGDVVGAGATGNDKKIEFEGKTYDYVFDVDIEDGKPPLKLPINVSDNPYTAADNFLARYELPMSYRDQVVQFILKNTNGISLDQPNDNASSSAVSPSKTSVMKVLPVKQYLIMENYNPDTIFNGIVKINSNEKTFDDEILAQIGGALHDIDESWELLLSFANTIRSNWEIKTPAYDIVRLIVKKLPYSSDIKDYIEEGLGNKNITLTMLTVRILVNCFNNENWGVKLLESNQVYKSIFETIDTEFSQASAKQSQNLAIAVSTLIFNYSALVTKGNSDLELLPIVADAINTKYGPLEEYQECEEAAYRLTVAYGNLATVEPTLRQFANSVTWLANIKRSYGNVPRFKDIFDDLS

Variants of: B1
Conditions: with cdc48_yeast CDC48, P25694
cdc48_yeast CDC48, P25694, sequence (P25694 whole entry): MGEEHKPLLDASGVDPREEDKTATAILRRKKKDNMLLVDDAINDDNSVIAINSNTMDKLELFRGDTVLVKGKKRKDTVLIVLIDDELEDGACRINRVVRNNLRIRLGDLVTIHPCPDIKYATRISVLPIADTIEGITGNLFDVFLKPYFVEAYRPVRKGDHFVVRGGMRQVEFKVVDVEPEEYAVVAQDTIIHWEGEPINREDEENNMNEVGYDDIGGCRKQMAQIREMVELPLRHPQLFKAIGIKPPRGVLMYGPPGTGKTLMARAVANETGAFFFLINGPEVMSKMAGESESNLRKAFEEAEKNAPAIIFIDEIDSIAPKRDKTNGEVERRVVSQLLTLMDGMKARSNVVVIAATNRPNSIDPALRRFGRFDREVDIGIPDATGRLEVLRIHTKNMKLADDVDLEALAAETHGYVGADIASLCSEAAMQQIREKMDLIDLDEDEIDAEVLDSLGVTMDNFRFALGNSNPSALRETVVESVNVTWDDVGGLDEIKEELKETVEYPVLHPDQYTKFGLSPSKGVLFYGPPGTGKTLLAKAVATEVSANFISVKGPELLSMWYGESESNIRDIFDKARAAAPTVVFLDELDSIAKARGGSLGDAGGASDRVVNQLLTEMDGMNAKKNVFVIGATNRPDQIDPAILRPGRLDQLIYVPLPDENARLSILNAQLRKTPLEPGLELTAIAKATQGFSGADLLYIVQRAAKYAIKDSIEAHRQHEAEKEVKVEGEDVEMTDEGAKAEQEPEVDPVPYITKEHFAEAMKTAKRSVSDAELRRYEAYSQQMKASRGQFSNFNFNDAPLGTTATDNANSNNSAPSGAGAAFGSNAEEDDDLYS

effect of a mutation on the interaction | Variant
disrupting interaction | R541A;R669A

Variants of: B1
Conditions: with cdc48_yeast CDC48, P25694
Remark: another data set of the same source

effect of a mutation on the interaction | Variant
disrupting interaction | R541A
decreasing interaction | N578A
decreasing interaction | R669A
